This assay has as its target EPHA2 (human (endogenous in HSC-4)) (UniProt P29317). As to the kind of experiment: proximity ligation.
Chain of UniProt P29317 (P29317 24-976): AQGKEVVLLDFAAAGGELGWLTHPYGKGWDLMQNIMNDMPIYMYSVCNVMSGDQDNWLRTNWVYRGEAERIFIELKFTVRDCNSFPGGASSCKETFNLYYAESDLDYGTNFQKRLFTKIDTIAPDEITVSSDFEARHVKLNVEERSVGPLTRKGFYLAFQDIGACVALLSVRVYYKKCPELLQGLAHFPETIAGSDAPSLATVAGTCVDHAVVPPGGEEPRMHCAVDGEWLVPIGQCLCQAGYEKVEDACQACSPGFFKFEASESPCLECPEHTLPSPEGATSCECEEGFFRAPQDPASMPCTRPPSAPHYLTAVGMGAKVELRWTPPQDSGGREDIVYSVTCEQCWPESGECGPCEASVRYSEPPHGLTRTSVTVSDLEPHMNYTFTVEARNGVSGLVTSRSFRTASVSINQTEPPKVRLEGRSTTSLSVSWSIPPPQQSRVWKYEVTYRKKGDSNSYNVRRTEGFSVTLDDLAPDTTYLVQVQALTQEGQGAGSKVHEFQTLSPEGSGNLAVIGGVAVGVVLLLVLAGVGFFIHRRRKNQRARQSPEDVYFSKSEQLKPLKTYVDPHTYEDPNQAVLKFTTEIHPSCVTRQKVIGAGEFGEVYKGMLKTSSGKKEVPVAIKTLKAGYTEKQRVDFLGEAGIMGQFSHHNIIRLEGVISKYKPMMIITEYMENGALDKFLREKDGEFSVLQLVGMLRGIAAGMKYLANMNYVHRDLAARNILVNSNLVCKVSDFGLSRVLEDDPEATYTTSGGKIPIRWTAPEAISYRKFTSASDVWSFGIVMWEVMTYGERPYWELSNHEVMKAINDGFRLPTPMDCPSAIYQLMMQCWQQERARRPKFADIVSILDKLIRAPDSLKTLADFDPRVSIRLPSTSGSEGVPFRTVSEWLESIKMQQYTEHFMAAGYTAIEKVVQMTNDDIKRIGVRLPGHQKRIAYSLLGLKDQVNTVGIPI

In turn, “Ephrin-B1 phosphorylated at Y324/329 (ligand)” returned a PLA foci per cell (foci per cell) of 2.

Values taken from paper doi:10.1101/2025.01.03.631197.
